Values of other authors in paper PMC12874384.

Columns and labels:
Lys204 [1] = molecular target: T1, Lys204 (UniProt position 204, ICGALKNVVAV); assay: kinetics (pH-rate profile); details: kcat/Km profile for reaction of DHAP dianion in the presence of NADH
Asp260 = Asp260 (UniProt position 260, SCGVADLITTC); assay: kinetics (pH-rate profile); details: kcat/Km profile for reaction of DHAP dianion in the presence of NADH
Lys204 [2] = molecular target: T1, Lys204; assay: kinetics (pH-rate profile of chemical rescue); details: K120A variant with EtNH3+ activator, DHAP and NADH
Glu165 [3] = molecular target: Glu165 (UniProt position 165, VVLAYEPVWAI); assay: kinetics (competitive inhibition, pH dependence of Ki); details: enzyme•PGA trianion complex (closed, inhibitor-bound)
Glu165 [4] = assay: as above; details: enzyme•PGA trianion complex (closed, inhibitor-bound)
Glu165 [5] = molecular target: Glu165 (UniProt position 165, VVVAYEPVWAI); assay: as above; details: enzyme•PGA trianion complex (closed, inhibitor-bound)

For “hlGPDH K120A variant (Homo sapiens; K120A)”, the pKa (Lys204 [1]) is listed as 7.6, the pKa (Asp260) is listed as 5.0 and the pKa (Lys204 [2]) is listed as 7.7.
In the case of “cTIM loop 7 replacement variant (L7RM, 208-TGAG-211) (Gallus gallus; Y208T;G210A;S211G)”, the pKa (Glu165 [3]) is listed as 6.7.
In the case of “TbbTIM P166A/I170A double variant (P168A/I172A in TbbTIM numbering) (Trypanosoma brucei brucei; P166A;I170A)”, the pKa (Glu165 [4]) is listed as 7.8.
In the case of “Glycerol 3-phosphate dehydrogenase [NAD+], human liver (hlGPDH) (Homo sapiens)”, the pKa (Lys204 [1]) is listed as 7.6 and the pKa (Asp260) is listed as 4.4.
For “yTIM Y208F variant (Saccharomyces cerevisiae; Y208F)”, the pKa (Glu165 [5]) is listed as 6.3.
For “Triosephosphate isomerase, chicken (cTIM) (Gallus gallus)”, the pKa (Glu165 [3]) is listed as “≈ 11”.
For “yTIM S211A variant (Saccharomyces cerevisiae; S211A)”, the pKa (Glu165 [5]) is given as 8.2.
For “Triosephosphate isomerase, yeast (yTIM) (Saccharomyces cerevisiae)”, the pKa (Glu165 [5]) is given as “≈ 11”.
For “Triosephosphate isomerase, Trypanosoma brucei brucei (TbbTIM) (Trypanosoma brucei brucei)”, the pKa (Glu165 [4]) is listed as “≈ 11”.
For “TbbTIM I170A variant (I172A in TbbTIM numbering) (Trypanosoma brucei brucei; I170A)”, the pKa (Glu165 [4]) is listed as 7.7.
In the case of “TbbTIM P166A variant (P168A in TbbTIM numbering) (Trypanosoma brucei brucei; P166A)”, the pKa (Glu165 [4]) is given as 9.3.
